Assay [1] deals with pfiT, tag-less (GST removed with PreScission protease) (Pseudomonas fluorescens). As to the kind of experiment: AUC; sedimentation velocity, pfiT alone at 3.6 µM, 20°C, 50,000 rpm, 10 mM Hepes pH 7.4, 150 mM NaCl, 2 mM DTT; c(s) and c(M) distributions (SEDFIT).
Assay [2] addresses recombinant HLA-DR1 protein bound to a hemagglutinin (HA) peptide. In words: pull-down.
In assay [3] the target is pfiT, tag-less (GST removed with PreScission protease) (Pseudomonas fluorescens). As to the kind of experiment: AUC; sedimentation equilibrium, pfiT alone at 9 µM and 18 µM, 20°C, 20,000/25,000/30,000 rpm, HBS; global fit with monomer-dimer model (SEDPHAT); dimer to monomers.

As to “pfiT, tag-less (GST removed with PreScission protease) (natural protein)”, the stoichiometry N (commonly the number of molecules, sites or subunits per partner or assembly) in assay [1] was determined as 2. In addition, the IC50 (usually the midpoint of a concentration-inhibition curve) in assay [2] amounted to 47 µM. In addition, the Kd (as a rule, the free concentration of one partner at which half of the binding sites on the other are occupied at equilibrium, for simple one-to-one binding) in assay [3] stood at 0.15 µM.
